# In article PMC9076272 (RSC Advances, 2019):
# B1: Pseudomonas aeruginosa single-stranded DNA-binding protein (PaSSB) (natural protein, UniProt P40947 1-165, looked up)
# chain: MARGVNKVILVGNVGGDPETRYMPNGNAVTNITLATSESWKDKQTGQQQERTEWHRVVFFGRLAEIAGEYLRKGSQVYVEGSLRTRKWQGQDGQDRYTTEIVVDINGNMQLLGGRPSGDDSQRAPREPMQRPQQAPQQQSRPAPQQQPAPQPAQDYDSFDDDIPF
# Target: the molecule itself
# Test: crystal structure
protein,measurement,value
B1,stoichiometry N,4
